Results: the supplement of paper PMC9170038

tested on: MS2 coat protein; test: apparent KD of MS2 coat protein; higher = weaker reporter binding; details: Eterna round: R107; input ligand: arginine 13.2 mM
Procedure, shortened: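 Designed RNA switches were transcribed on-chip from Illumina sequencing clusters. They were then titrated with SNAP-549-labelled MS2 coat protein (twofold steps, 0.7 or 1.5 nM to 3 µM; 0.8–1.5 h to 10–20 min per step) in 100 mM Tris-HCl pH 7.5, 80 mM KCl, 4 mM MgCl2, without or with constant ligand. Apparent KD is the per-design median of normalised cluster binding-curve fits.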

Sequence | apparent KD of MS2 coat protein [nM]
ACAUGAGGAUCACCCAUGUAAUAGCGAGAAGGAGCGCGUAAGGACGCAGGUAGGUCGCUCGUGGUCCGGCCGCAAGGCCGGACCA [#1 Same State - Arginine A Attempt #10 (HarryS)] | 11.1
CAAUAAGUACCGGUCCUCAGAUCCUCAUGACGAGGACCGGUACGGCCGCCACUCGAAACAUGAGGAUCACCCAUGUAAUAAUAAC [Brourdmod02] | 20.6
GUCCUAGCGAUCGCUCGCUAGGACGCGGAUACCAGCGAGGUCCAUCGCCCUUGGCAGCCGAACAUGAGGAUCACCCAUGUCGGUA [#1 Same State - Theophylline A Attempt #18 (HarryS)] | 8.4
AGUAGACACGCGGCCGCCACUUGAGGAUCACCCAAGUGGUGUGUACUUGAAAACAAGUGCACAUCAAGGACCGGGCGUGUCUACA [Omei Tryp B SS D v3] | 7.19
GGCUGACAUGAGGAUCACCCAUGUAGUGAUACCAGUAAGAGAAUAUACCCUUGGCAGCACAGGUAACAACUCGUCUCCAAAGUAA [theeternabot_sameState_MS2_Theo_A_49] | 53.7
GGAUAGGACACGGCCGCCACUAGCUAGGAUACUAGCAACAUUUCCUCACUUGAGGAACACCCAAGUAGGACCGGGUGUCCUAUCG | 122
UGCUGACAAGGACAUGGAUGAUCAGCUGAUACCAGCCUGGAAACAGGCCCUUGGCAGCAGCACAUGAGGAUCACCCAUGUAAUAA [(T)'-(M)'-(T1)-(T2)-(M1)-(M2)_Design3(Mismatches)] | 28.4
AAACAUGAGGAUCACCCAUGUUCAAUAGAUACCAGUGAUACGGUGCACCCUUGGCAGCUGUUGCUGAGUGAUGGUUCCCUCGGUA [#24 SameState-TheophyllineA] | 19.9
GGACUAACCUGAAGGAGCGACGCGCAGAAACUGCAAAUUCCUCCACACGAGGAUCACCCGUGUCAGGUAGGUCGCAGGUUAGUCG [ArgBX 28] | 13.6
AUAUGAUCAUGUGAUACCAGAAAUGGUAUUCCUCGCUGGAUUACAUGAGGAUCACCCAUGUUCCCUUGGCAGCAUAUGAUCAUAU [#01 Exclusion-TheophyllineB] | 21.3
AACAUGAGGAUCACCCAUGUGUCCUCGAAACGAGGACCGGUACGGCCGCCACUCGACGUAUGUUGACGAAAAGUCAGCAUACGAA [Mat - Exclusion - Trytophan A - D12] | 112
AUUAACAUGAGGAUCACCCAUGUUCUCACACGAGGACCGGUACGGCCGCCACUCGGUUUGGUAUUGGUCACUAGGCAGUUAGGAG [theeternabot_sameState_MS2_Trp_A_12] | 15.2
AAAACAAUCUGAAGGAGCGUCACAUGAGGAUCACCCAUGUACAUGAGGAUCACCCAUGUGUGACAGGUAGGUCGCAGAAAAUACC [Exclusion Arginine B GF 3] | 111
ACGAUACGACAUGAGGAUCACCCAUGUGAUACCAGCGUGGAAACACGCCCUUGGCAGCACAAAUACUCCAAUAACGUAUCGAAAA [MAT - Exclusion Theophlline A - Mod of Eli - D8] | 139
CGCACAUGAGGAUCACCCAUGUGAGGGCGGCGAGGACCGGUACGGCCGCCACUCGCAAAACAUGAGGAUCACCCAUGUGCCGCCG [SSTA DOUBLE!!! :-D #2] | 30.1
GGACUAACCAGAAGGAGCGGCACGCAGAAACUGCAAUUUCCUCCACACGAGGAUCACCCGUGUCAGGUAGGUCGCUGGUUAGUCG [ArgBX 29] | 26.4
UGGCAAGAGGGAAGGAGCGUCAGCUGAGUCACAUGAGGAUCACCCAUGUAGCACAUGGUGUGACAGGUAGGUCGCCCUCUGCCGU [SS-ArgB11] | 34.4
GGACUAACCAGAAGGAGCGACACGCAGAAACUGCAAUUUCCUCCGCACGAGGAUCACCCGUGUCAGGUAGGUCGCUGGUUAGUCG | 20.6
CAUUUUAGAAAACUAAAAUGAGUGGGUGAACGAGGACCGGUACGGCCGCCACUCGGACAUGAGGAUCACCCAUGUCCAUGUGAAA [AstrosExyTryA#22] | 22.8

Sequence | apparent KD of MS2 coat protein [nM]
ACGUCCCGUUUACUCGUGGGUUAGGUCGAUACCAGUAUUCAAACUUACCCUUGGCAGCGACAUGAGGAUCACCCAUGUGCGAAGA [XTheo A #22] | 19
AUAAGGUAUCUGCUAUCCUCAUGAGCAGAUACCAGCUAGGAAACUAGCCCUUGGCAGCUGCAACAUGAGGAUCACCCAUGUAAUA [(T)'-(M)'-(T1)-(T2)-(M1)-(M2)_Design1] | 64.4
UAACAUGAGGAUCACCCAUGUUUGAAGGAACGAGGACCGGUACGGCCGCCACUCGACGAGUGGAUGAGAAGUGGGCUUGUGUGCU [Same State Trp A GF9] | 13.7
UGGCAAGAGGGAAGGAGCGUCAGCAGAGUCACAUGAGGAUCACCCAUGUAGCACGUGGUGUGACAGGUAGGUCGCCCUCUGCCGU [SS-ArgB12] | 24.3
AAUUUUAACGGAAGGAGCGUCAAUUAAUACAAACAUGAGGAUCACCCAUGUCAAUACAUGAGACAGGUAGGUCGCCGUUAUUUGA [JR_AAArginiB_Sub024] | 23.9
UCAGGAAGAGCGGCCGCCACUGUUUGGCAUGCGGAUGAAGGAACAUGAGGAUCACCCAUGUAGAUUAGGACCGGGCUUGCGGAGA [szeemullin] | 20.9
AGCCAUGGAAACAUGGCGGCGGCAUGAGCGCGAGGACCGGUACGGCCGCCACUCGGGCAACAUGAGGAUCACCCAUGUUCCUCAU [ETA NP+V+V2 #20 +-Same Structure] | 62.5
GGUUGGUGUAGAGAUAUAUUGAUUACUGAAGGAGCGGGAAAUAACCCAGGUAGGUCGCAGAGAUCCACAUGAGGAUCACCCAUGU [!0.K] | 30.6
GUUAGAUCAAAAGAUUUAACAGUGGGUGAACGAGGACCGGUACGGCCGCCACUCGGACAUGAGGAUCACCCAUGUCCAUGUGAAA [AstrosExyTryA#16] | 19.4
ACAUGACAACAUGAGGAUCACCCAUGUCAUCGAGGACCGGUACGGCCGCCACUCGGUCAAUAUGAUACUUGUCAUGAACAUGAGG [Exclusion Tryptophan A 2] | 19
GGAAGCAGGACUGAUACCAGUCCAGCGAAUCAUACGACGCAACAUGAGGAUCACCCAUGUGACCCUUGGCAGCAGACUGCUACCG [Same State Theophylline B GF 27] | 33.1
GGAAAAUAUAGGGAUACCAGAUAUGGCGUUGACAUGAGGAUCACCCAUGUCUUAGCAGUGAUCCCUUGGCAGCCCACACCAUCCG [theeternabot_sameState_MS2_Theo_B_13] | 40.9
CCCAGUUAUAACAAAGGAAUUAUACUCGAAGGAGCGUCAUAGUAGGCAGGUAGGUCGCGAGACAUGAGGAUCACCCAUGUAGAGA [k,lmullin] | 32.1
GCUGCCAUACGAAGGAGCGCUGUUGUAGUGAGGCGAACAUGAGGAUCACCCAUGUGGCAGCAGCAGGUAGGUCGCGUAUGGCAGC [EAB #13] | 13.7
UCGUUAUGGUCGGCCGCCACUCGCGGAGAGCAUAGCUCAAACAUGAGGAUCACCCAUGUAUCAUGGAGGACCGGGACCAUAACGU [Rxmullin variation #StaticStem] | 30
GCACCAGGUACGGAUACCAGCUGCCCGAGAUACAUGAGGAUCACCCAUGUGACCUGGUUUAGCCCUUGGCAGCUGUACCUGGUGC [#14 Same State - Theophylline B] | 13
UUACAUGAGGAUCACCCAUGUCAUACAGAAGGAGCGUCACAUAAGACAGGUAGGUCGCUGUUAUUUCAUACUGUUAUAUCCUCUA [JR_Nu_ExcArginiA_Sub029] | 30.1
CCUUUGUAGCGAAGGAGCGCGUGACUUAGCUCAUGUAAACAUGAGGAUCACCCAUGUGACACGCAGGUAGGUCGCGCUAUGAAGG [Arg B Ex t3] | 22.2
CUGCCAUGCAGAGAUACCAGUGAGCUCAGAACAUGAGGAUCACCCAUGUACGCCGCCGAUCACCCUUGGCAGCUCUGCAUGGCAG [%*#)(] | 12.2

same assay, conditions: Eterna round: R107; input ligand: none

Sequence | apparent KD of MS2 coat protein [nM]
ACAUGAGGAUCACCCAUGUAAUAGCGAGAAGGAGCGCGUAAGGACGCAGGUAGGUCGCUCGUGGUCCGGCCGCAAGGCCGGACCA [#1 Same State - Arginine A Attempt #10 (HarryS)] | 9.24
